Molecular target: the molecule itself
Assay: native-PAGE/immunoblot of conditioned media of transfected 293T cells; self-association (homodimer)

B1: S100A1 with C-terminal fp2a-cleaved linker tail (2A tail), as cleaved from lead dual-gene and triple-gene constructs (other)
chain: MGSELETAMETLINVFHAHSGKEGDKYKLSKKELKELLQTELSGFLDAQKDVDAVDKVMKELDENGDGEVDFQEYVVLVAALTVACNNFFWENSRAKRAPVKQGSGATNFSLLKQAGDVEENPG
notes: Homodimer seen by native PAGE and immunoblot; also called S100A1 with 2A tail
  binding result: binds
